Test results: PMC2213614 (The Journal of Cell Biology, 2008)

Biological target: T1, GST-[change] (aa 1–320) (S. cerevisiae, UniProt P33332 1-320)
T1 sequence: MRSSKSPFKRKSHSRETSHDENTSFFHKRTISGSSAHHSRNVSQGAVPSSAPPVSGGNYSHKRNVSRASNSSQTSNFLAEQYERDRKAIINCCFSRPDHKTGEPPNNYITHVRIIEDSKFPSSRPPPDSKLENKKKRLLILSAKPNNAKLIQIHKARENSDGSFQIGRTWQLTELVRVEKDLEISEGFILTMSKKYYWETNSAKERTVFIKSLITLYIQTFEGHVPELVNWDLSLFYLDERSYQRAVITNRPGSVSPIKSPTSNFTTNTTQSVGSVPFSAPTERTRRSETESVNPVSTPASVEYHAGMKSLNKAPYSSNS
Assay: pull-down

B1: Hisx6-Cdc42 (natural protein)
chain: not shown
- binding result: binds
